Measurements reported in patent US20030119027.

Molecular target: T1, SfiI (Streptomyces fimbriatus) (UniProt O52512)
T1 sequence: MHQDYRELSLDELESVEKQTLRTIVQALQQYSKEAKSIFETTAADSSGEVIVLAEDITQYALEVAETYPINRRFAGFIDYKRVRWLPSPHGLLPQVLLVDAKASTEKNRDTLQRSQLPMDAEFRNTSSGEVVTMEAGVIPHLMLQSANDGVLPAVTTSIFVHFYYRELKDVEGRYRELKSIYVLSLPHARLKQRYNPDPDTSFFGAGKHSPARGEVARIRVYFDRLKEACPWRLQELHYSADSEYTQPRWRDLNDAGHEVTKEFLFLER
Experiment: cleavage_in_vitro
Conditions: yield of in vitro translation with T7 RNA polymerase; NEBuffer 2, 10 mM MgCl2, 50 C 60 min

“GGCCNNNNNGGCC (double strand) [SfiI site (Adenovirus-2 DNA)]” gave an activity of over 33000 units/ml.
